Reference: publication PMC9889267

Molecular target: MLucV (pTriEx-mTFP1(cp175)-Luciferase-Venus(cp173)), purified reporter protein (firefly) [luciferase: P08659]
Assay: SEC-RALS; UMLucV (urea pre-aggregated MLucV), 1 µM, 300 µl on Superdex-200 increase; similar size profile up to 2,000 nM; oligomer of misfolded protomers

stoichiometry N: 12
Substance: MLucV (pTriEx-mTFP1(cp175)-Luciferase-Venus(cp173)), purified reporter protein (from UniProt P08659 1-544)
